# In PMC12566272:
# Molecular target: T1, FucR (Cj0480c), IclR-type regulator (Campylobacter jejuni NCTC 11168) (UniProt Q0PB33)
# T1 sequence: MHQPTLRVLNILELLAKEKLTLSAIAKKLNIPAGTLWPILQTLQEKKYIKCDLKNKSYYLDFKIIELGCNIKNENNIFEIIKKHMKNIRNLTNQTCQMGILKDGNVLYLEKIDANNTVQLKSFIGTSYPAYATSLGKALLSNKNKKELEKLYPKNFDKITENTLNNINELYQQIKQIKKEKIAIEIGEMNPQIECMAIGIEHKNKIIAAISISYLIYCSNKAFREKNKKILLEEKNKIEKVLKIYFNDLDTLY
# Assay: EMSA
# Conditions: 50 mM Tris-HCl, 150 mM KCl, 10 mM MgCl2, pH 7.4, room temperature, 1 h; 4-20% gradient PAGE
sequence,measurement,value
GCTGATGCATATTGTCTTTATCCTTATTTTATTTTTATAAATTTTAGCATATTTTTTACTTTTAGTAACATAAAATCATAATTTTTATTATTTATTAATTTTAATATTTTTTTTGTAAAAATTGGCAGTTAATAAGAATAAAATACGAATTTTTACCAAGTTAACAGCTTGATTTTTTTACAAATATTTTGTTATATTTTTTGTATATAAATATATTTTTGTATATACGAAAGGAAAAAAATGGGAATTTTAAAAGGAACTTTACCGGCTTTACTTAC (double strand) [PR2 (fucose operon) promoter fragment],binding,binds
